Results reported in patent US6410255B1, “Optical probes and assays” (priority 1999, dated 2002).
Where no end group is shown, it is not given here. [ ]: non-standard residue; d: D form. pS = N[C@@H](COP(=O)(O)O)C(=O)O

Columns and labels:
[1] = biological target: PTP-B; experiment: Inhibition of protein tyrosine phosphatase with phosphorylated Src-2 probe; type: biochemical; conditions: read-out: apparent IC50
Description: (§1) Optical probes were first phosphorylated to completion as described above, and samples of phosphorylated optical probe, at a final concentration of 500 nM, were incubated with various concentrations of protein tyrosine phosphatase-B (PTP-B) agarose (Upstate Biotechnology) for 20 minutes at 30 C in 0.1×PBS. At the required time interval, PTP-B-agarose was removed by a brief microfuige spin prior to transfer to 96-well Cytofluor plates for fluorescence measurements, after addition of chymotrypsin (100 nM), as described in Example 1.

[2] = biological target: T1, chymotrypsin (Bos taurus, UniProt P00766); experiment: Chymotrypsin cleavage of phosphorylated and non-phosphorylated tyrosine kinase optical probes; type: biochemical, bovine; design: purchased Calbiochem 230832
[3] = biological target: T2, v-Abl kinase (Abelson murine leukemia virus, UniProt P00521); experiment: v-Abl kinase phosphorylation of optical probe, fluorescence readout after chymotrypsin; type: biochemical
T2 construct: purchased Calbiochem
T2 sequence (P00521 whole entry): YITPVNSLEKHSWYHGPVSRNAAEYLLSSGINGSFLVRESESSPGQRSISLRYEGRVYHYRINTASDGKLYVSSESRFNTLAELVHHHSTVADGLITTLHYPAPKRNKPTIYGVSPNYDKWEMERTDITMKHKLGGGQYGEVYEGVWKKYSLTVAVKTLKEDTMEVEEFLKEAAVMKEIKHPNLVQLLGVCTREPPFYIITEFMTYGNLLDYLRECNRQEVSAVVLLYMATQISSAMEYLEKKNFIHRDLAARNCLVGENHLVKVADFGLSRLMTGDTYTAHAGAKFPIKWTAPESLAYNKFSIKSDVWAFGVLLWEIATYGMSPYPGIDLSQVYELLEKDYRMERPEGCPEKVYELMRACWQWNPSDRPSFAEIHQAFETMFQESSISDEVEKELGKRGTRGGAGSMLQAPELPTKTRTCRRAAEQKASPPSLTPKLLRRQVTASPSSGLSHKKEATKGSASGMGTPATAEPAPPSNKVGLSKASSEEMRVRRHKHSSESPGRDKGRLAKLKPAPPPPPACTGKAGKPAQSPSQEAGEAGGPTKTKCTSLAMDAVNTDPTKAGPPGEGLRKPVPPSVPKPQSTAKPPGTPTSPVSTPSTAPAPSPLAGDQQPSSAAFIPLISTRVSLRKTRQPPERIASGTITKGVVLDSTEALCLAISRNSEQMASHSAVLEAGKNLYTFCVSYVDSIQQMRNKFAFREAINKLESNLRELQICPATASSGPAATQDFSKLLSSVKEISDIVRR

[4] = biological target: PP1 (Homo sapiens, UniProt P62136); experiment: PP1 inhibitor assay with optical probe; type: biochemical; conditions: no inhibitor; chymotrypsin 0.2 μM, 2 hour
PP1, sequence (P62136 whole entry): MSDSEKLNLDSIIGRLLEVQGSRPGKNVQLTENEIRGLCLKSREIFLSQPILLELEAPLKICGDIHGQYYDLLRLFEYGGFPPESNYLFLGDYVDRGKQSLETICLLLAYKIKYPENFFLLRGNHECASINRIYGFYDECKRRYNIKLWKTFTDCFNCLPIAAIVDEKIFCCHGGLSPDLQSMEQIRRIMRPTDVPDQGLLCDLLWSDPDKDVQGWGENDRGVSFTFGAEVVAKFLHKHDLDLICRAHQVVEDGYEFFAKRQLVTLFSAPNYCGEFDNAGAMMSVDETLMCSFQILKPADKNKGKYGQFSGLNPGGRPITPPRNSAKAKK
Description: To determine if the optical probe protein phosphatase assay could detect inhibitors of PP1, the phosphatase assay was performed in the presence or absence of 1 μM microcystin-LR, a potent inhibitor of PP1. Phosphatase assays were set up as described above except the phosphatase was allowed to pre-incubate with microcystin-LR for 10 minutes before the addition of phosphorylated or non-phosphorylated optical probes (SEQ. ID. NO: 23). PP1 reactions were incubated at 30 C for 1 hour and then diluted to 100 μL in 50 mM HEPES, pH 7.5 followed by the addition of chymotrypsin to 0.2 μM. Fluorescence values were measured on the Cytofluor after a 2 hour incubation at room temperature as described above. After treatment of the phosphorylated optical probe with PP1 followed by chymotrypsin, the 460/530 ratio was 13.2±0.2. […] Thus, the present invention could be used to detect inhibitors of PP1 activity.

[5] = biological target: T1, chymotrypsin; experiment: Chymotrypsin cleavage of optical probe with or without casein kinase 1 phosphorylation; type: biochemical
Source text: To measure casein kinase 1 activity, an optical probe was designed as described above. In this case, the kinase substrate was designed so that the point of phosphorylation was located at the P′2 position (underlined in SEQ. I.D. NO: 17 below) with respect to the scissile bond cleaved by chymotrypsin, which enables the creation of a recognition motif suitable for casein kinase 1. A substrate peptide ([…], SEQ. ID. NO: 17) was synthesized and labeled with fluorescein isothiocyanate at the N-terminus and 7-hydroxycoumarin-3-carboxamide at the C-terminus as described in Example 1.
Samples of phosphorylated and non-phosphorylated optical probes were prepared and tested as described in Example 1. In this case, complete phosphorylation of the optical probe (1 μM) was obtained after room temperature incubation for 15 to 30 minutes in the presence of 500 Units of casein kinase 1 (New England BioLabs) in 50 mM Tris-Cl, pH 7.5, 10 mM MgCl2, 5 mM DTT, and 200 μM ATP.
To determine the relative proteolytic sensitivity of phosphorylated and non-phosphorylated optical probes, samples of both were incubated with various concentrations of chymotrypsin and the cleavage monitored by measuring the 460/530 emission ratio as described in Example 1.

[6] = biological target: protein phosphatase I (PPI) (Homo sapiens, UniProt P62136); experiment: Protein phosphatase I dephosphorylation of optical probe; type: biochemical
protein phosphatase I (PPI), sequence (P62136 whole entry): as above
Description: To determine if the optical probes could be used to detect serine/threonine phosphatase activities, samples of the casein kinase 1 specific phosphorylated optical probes were prepared and treated with various serine/threonine protein phosphatases. To do this, the casein kinase 1 optical probe ([…], SEQ. ID. NO: 17) (100 μM) was phosphorylated to completion with CKI (2000 units) in a 100 μL reaction containing 200 μM ATP for 5 hours at 30° C. A mock kinase reaction was performed which contained no ATP for preparation of control, non-phosphorylated optical probes. The resistance of the phosphorylated optical probe to chymotrypsin cleavage (data not shown) confirmed complete phosphorylation of the CKI-treated optical probe. Phosphorylated and non-phosphorylated samples of the optical probe (2 μM) were incubated in a 50 μL volume with or without 1 unit of the serine/threonine phosphatase protein phosphatase I (PPI) for 2 hours at 30° C. in a buffer consisting of 50 mM Tris-Cl, pH 7.0, 0.1 mM EDTA, 5 mM DTT, 0.01% Brij-35, and 1 mM MnCl2. The reactions were diluted to 100 μL with 50 mM HEPES, pH 7.5, incubated with chymotrypsin (0.2 μM) for 1 hour at room temperature, and fluorescence values were measured on the Cytofluor as described above. Before chymotrypsin addition all reactions had similar 460/530 ratios of about 1.2.

[7] = biological target: protein phosphatase 2A (PP2A) (Homo sapiens, UniProt P67775); experiment: Protein phosphatase 2A dephosphorylation of optical probe; type: biochemical; conditions: 1.5 hour chymotrypsin incubation
protein phosphatase 2A (PP2A), sequence (P67775 whole entry): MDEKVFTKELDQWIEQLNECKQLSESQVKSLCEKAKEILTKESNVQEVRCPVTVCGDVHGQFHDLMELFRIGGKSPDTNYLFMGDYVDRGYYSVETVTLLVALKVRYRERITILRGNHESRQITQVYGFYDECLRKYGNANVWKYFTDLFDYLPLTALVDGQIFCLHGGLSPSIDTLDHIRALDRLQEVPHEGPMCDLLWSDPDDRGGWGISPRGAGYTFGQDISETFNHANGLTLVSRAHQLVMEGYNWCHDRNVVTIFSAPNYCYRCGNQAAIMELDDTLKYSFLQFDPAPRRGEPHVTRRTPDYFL
Description: The optical probes were also evaluated to determine if they could be used to measure protein phosphatase 2A (PP2A) activity. Phosphorylated and non-phosphorylated samples of the CKI optical probes ([…]) were prepared and incubated with 0.03 units of PP2A as described above, except MnCl2 was not included. After dilution and addition of chymotrypsin as described above, fluorescence values were measured using a 96 well plate reader (Cytofluor). After a 1.5 hour chymotrypsin incubation, the 460/530 emission ratio of the phosphorylated optical probe was 1.8±0.2 (Table 18).

[8] = biological target: PP2A (Homo sapiens, UniProt P67775); experiment: PP2A inhibitor assay with optical probe; type: biochemical; conditions: no inhibitor
PP2A, sequence (P67775 whole entry): as above
Description: To determine if the optical probe phosphatase assay could detect inhibitors of PP2A, the phosphatase assay was performed in the presence or absence of 100 nM microcystin-LR. PP2A assays were set up as described above, and were incubated at 30 C for 2 hours. Reactions were diluted to 100 μL with 50 mM HEPES, pH 7.5 followed by the addition of chymotrypsin to 0.2 μM. Fluorescence values were measured on the Cytofluor after a 1.5 hour incubation at room temperature. As described above, treatment of the phosphorylated optical probe (SEQ. ID. NO: 23) with PP2A followed by chymotrypsin gave a final 460/530 ratio of 8.8±0.1. […] Thus, the optical probe based phosphatase assay can detect inhibitors of PP2A activity.

[9] = biological target: protein kinase A (Homo sapiens, UniProt P17612); experiment: Protein kinase A inhibitor assay with optical probe; type: biochemical; conditions: inhibitor 10 μM, ATP 10 μM
Description: […] After one hour incubation at 30 C, chymotrypsin to a final concentration of 0.8 nM was added and the 460/530 ratio was determined after one hour, as described above (Example 6).

[10] = biological target: T3, Src kinase (Homo sapiens, UniProt P12931); experiment: Src kinase phosphorylation of optical probes; type: biochemical; conditions: fluorescence after protease incubation; read-out: apparent Km with respect to the Src kinase
T3 construct: purchased Upstate Biotechnology

[11] = test system: protein tyrosine phosphatase-B (PTP-B); experiment: Dephosphorylation of phosphorylated optical probes by PTP-B; type: biochemical; conditions: for Fluorescence emission ratio of peptide after protease treatment: phosphorylated probe 500 nM, 20 minutes at 30 C
Description: as §1
In this experiment, the relative rates of dephosphorylation of the phosphorylated Src-2-specific substrate (SEQ. ID. NO: 29) and an abl-specific (SEQ. I.D. No. 4) substrate optical probes by the protein tyrosine phosphatase PTP-B were compared.

For `[O]=[V]([OH])([OH])[OH]` [Ortho-vanadate, orthovanadate], the IC50 [1] was 420 nM.

In the case of AEAIYAAPL [abl substrate], the “difference in emission ratios of phosphorylated (non-cleaved) and non-phosphorylated (cleaved) substrate” value [2] is reported as 30 fold, the “turnover of the optical probe by v-Abl” value [3] is reported as 9.5 s⁻¹ and the Km ([3]; read-out: apparent Km for the substrate) is reported as 40 µM.

For “GDQDYLSLDK (GDQDYL[pS]LDK; also: FITC and hydroxycoumarin carboxamide labels, places not given here) [casein kinase 1 optical probe, peptide labeled with fluorescein isothiocyanate and 7-hydroxycoumarin-3-carboxamide; casein kinase 1 substrate]”, the “460/530 ratio After Chymotrypsin, Non-phosphorylate Optical probe + PP1” value [4] was 13.2 ± 0.1, the “460/530 ratio After Chymotrypsin, Phosphorylated Optical probe + PP1” value [4] was 13.2 ± 0.2 and the “460/530 Emission Ratio, Negative Control (No Active Kinase)” value ([5]; chymotrypsin 0.04 μM) was 3.0. The “460/530 Emission Ratio, Positive Control (Active Kinase Only)” value (shortened to “460/530 Emission Ratio, Positive Control”) ([5]; chymotrypsin 0.04 μM) was 1.2, the “Fold difference in ratios” value ([5]; chymotrypsin 0.04 μM) was 2.5 and the “460/530 Emission Ratio, Negative Control (No Active Kinase)” value ([5]; chymotrypsin 0.1 μM) was 6.6. For the same molecule, the “460/530 Emission Ratio, Positive Control” value ([5]; chymotrypsin 0.1 μM) was 1.4, the “Fold difference in ratios” value ([5]; chymotrypsin 0.1 μM) was 4.7 and the “460/530 Emission Ratio, Negative Control (No Active Kinase)” value ([5]; chymotrypsin 0.2 μM) was 10.9. For the same molecule, the “460/530 Emission Ratio, Positive Control” value ([5]; chymotrypsin 0.2 μM) was 1.7, the “Fold difference in ratios” value ([5]; chymotrypsin 0.2 μM) was 6.4 and the “460/530 Emission Ratio, Negative Control (No Active Kinase)” value ([5]; chymotrypsin 0.3 μM) was 12.3. The “460/530 Emission Ratio, Positive Control” value ([5]; chymotrypsin 0.3 μM) was 1.9, the “Fold difference in ratios” value ([5]; chymotrypsin 0.3 μM) was 6.5 and the “460/530 Emission Ratio, Negative Control (No Active Kinase)” value ([5]; chymotrypsin 0.4 μM) was 14.3. The “460/530 Emission Ratio, Positive Control” value ([5]; chymotrypsin 0.4 μM) was 2.3, the “Fold difference in ratios” value ([5]; chymotrypsin 0.4 μM) was 6.2 and the “460/530 Emission Ratio, Negative Control (No Active Kinase)” value ([5]; chymotrypsin 1.0 μM) was 15.4. For the same molecule, the “460/530 Emission Ratio, Positive Control” value ([5]; chymotrypsin 1.0 μM) was 3.8, the “Fold difference in ratios” value ([5]; chymotrypsin 1.0 μM) was 4.1 and the “460/530 Emission Ratio, Negative Control (No Active Kinase)” value ([5]; chymotrypsin 2.0 μM) was 15.6. For the same molecule, the “460/530 Emission Ratio, Positive Control” value ([5]; chymotrypsin 2.0 μM) was 6.0, the “Fold difference in ratios” value ([5]; chymotrypsin 2.0 μM) was 2.6 and the “460/530 Emission Ratio After Chymotrypsin, Phosphorylated Control + Phosphatase (PP1)” value ([6]; 1 unit PPI, 2 hours at 30° C., chymotrypsin 0.2 μM, 1 hour) was 10.0. The “460/530 ratio before chymotrypsin addition” value ([6]; all reactions) was “about 1.2”, the “460/530 Emission ratio After Chymotrypsin, Non-phosphorylated Control” value ([6]; chymotrypsin 0.2 μM, 1 hour) was 9.8 and the “460/530 Emission ratio After Chymotrypsin, Phosphorylated Control” value ([6]; chymotrypsin 0.2 μM, 1 hour) was 2.0. The “460/530 Emission ratio After Chymotrypsin, Phosphorylated Control + Phosphatase (PP2A)” value ([7]; 0.03 units PP2A) was 8.8 ± 0.1, the “460/530 Emission ratio After Chymotrypsin, Non-phosphorylated Control” value [7] was 11.0 ± 0.1 and the “460/530 Emission ratio After Chymotrypsin, Phosphorylated Control” value [7] was 1.8 ± 0.2. The “460/530 ratio Before Chymotrypsin, Non-phosphorylate Optical probe + PP2A” value [8] was 1.4 ± 0.0, the “460/530 ratio Before Chymotrypsin, Phosphorylated Optical probe + PP2A” value [8] was 1.3 ± 0.0 and the “460/530 ratio After Chymotrypsin, Non-phosphorylate Optical probe + PP2A” value ([8]; chymotrypsin 0.2 μM, 1.5 hour) was 11.1 ± 0.1. The “460/530 ratio After Chymotrypsin, Phosphorylated Optical probe + PP2A” value ([8]; chymotrypsin 0.2 μM, 1.5 hour) was 8.8 ± 0.1.

With `O=S(=O)(NCCNC/C=C/c1ccc(Br)cc1)c1cccc2cnccc12` [H-89] the “inhibition of protein kinase A activity” value [9] was “almost complete inhibition”.

“GEEEIYGVIEK [Src-2, fluorescently labeled optical probe for Src kinase; phosphorylated form is the PTP-B substrate]” was tested, and the Km [10] was 19 µM, the “Fluorescence emission ratio of peptide after protease treatment” value (“Fluorescence emission ratio of peptide” below) ([11]; Log concentration of PTP-B −7.7) was 17.7 and the “Fluorescence emission ratio of peptide” value ([11]; Log concentration of PTP-B −8.7) was 17.6. The “Fluorescence emission ratio of peptide” value ([11]; Log concentration of PTP-B −9.7) was 15.8, the “Fluorescence emission ratio of peptide” value ([11]; Log concentration of PTP-B −10.7) was 5.40 and the “Fluorescence emission ratio of peptide” value ([11]; Log concentration of PTP-B −11.7) was 1.99. The “Fluorescence emission ratio of peptide” value ([11]; Log concentration of PTP-B −12.7) was 1.75, the “Fluorescence emission ratio of peptide” value ([11]; Log concentration of PTP-B −13.7) was 1.62 and the “Fluorescence emission ratio of peptide” value ([11]; Log concentration of PTP-B −14.7) was 1.60. For the same molecule, the kcat ([11]; phosphorylated probe, PTP-B) was 79 s⁻¹ and the Km ([11]; phosphorylated probe, PTP-B, Michaelis-Menten plot, read-out: apparent Km) was 1.3 µM.
